Measurements from IntAct's records for PubMed 25910212.

B1: ATP synthase mitochondrial F1 complex assembly factor 2 (Homo sapiens), Q8N5M1 (parent)
chain: MWRSCLRLRDGGRRLLNRPAGGPSASMSPGPTIPSPARAYAPPTERKRFYQNVSITQGEGGFEINLDHRKLKTPQAKLFTVPSEALAIAVATEWDSQQDTIKYYTMHLTTLCNTSLDNPTQRNKDQLIRAAVKFLDTDTICYRVEEPETLVELQRNEWDPIIEWAEKRYGVEISSSTSIMGPSIPAKTREVLVSHLASYNTWALQGIEFVAAQLKSMVLTLGLIDLRLTVEQAVLLSRLEEEYQIQKWGNIEWAHDYELQELRARTAAGTLFIHLCSESTTVKHKLLKE
partner: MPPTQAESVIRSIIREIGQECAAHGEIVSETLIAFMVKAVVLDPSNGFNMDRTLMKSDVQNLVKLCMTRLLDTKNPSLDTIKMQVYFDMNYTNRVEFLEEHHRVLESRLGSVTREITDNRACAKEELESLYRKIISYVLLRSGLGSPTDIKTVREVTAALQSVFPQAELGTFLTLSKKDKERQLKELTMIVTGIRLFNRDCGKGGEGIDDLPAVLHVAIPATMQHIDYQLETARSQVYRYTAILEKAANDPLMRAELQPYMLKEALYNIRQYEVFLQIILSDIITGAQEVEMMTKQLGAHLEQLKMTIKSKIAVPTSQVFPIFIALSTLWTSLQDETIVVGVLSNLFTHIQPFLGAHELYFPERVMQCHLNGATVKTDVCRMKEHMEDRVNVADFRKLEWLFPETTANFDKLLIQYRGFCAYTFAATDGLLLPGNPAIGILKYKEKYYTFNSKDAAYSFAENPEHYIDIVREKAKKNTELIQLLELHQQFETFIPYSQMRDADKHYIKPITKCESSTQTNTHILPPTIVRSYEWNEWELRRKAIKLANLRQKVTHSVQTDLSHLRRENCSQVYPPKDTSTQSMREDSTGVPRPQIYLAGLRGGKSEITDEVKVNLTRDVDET
B2: EF-hand domain-containing protein 1 (Homo sapiens), Q5JVL4 (parent)
chain: MVSNPVHGLPFLPGTSFKDSTKTAFHRSQTLSYRNGYAIVRRPTVGIGGDRLQFNQLSQAELDELASKAPVLTYGQPKQAPPADFIPAHVAFDKKVLKFDAYFQEDVPMSTEEQYRIRQVNIYYYLEDDSMSVIEPVVENSGILQGKLIKRQRLAKNDRGDHYHWKDLNRGINITIYGKTFRVVDCDQFTQVFLESQGIELNPPEKMALDPYTELRKQPLRKYVTPSDFDQLKQFLTFDKQVLRFYAIWDDTDSMYGECRTYIIHYYLMDDTVEIREVHERNDGRDPFPLLMNRQRVPKVLVENAKNFPQCVLEISDQEVLEWYTAKDFIVGKSLTILGRTFFIYDCDPFTRRYYKEKFGITDLPRIDVSKREPPPVKQELPPYNGFGLVEDSAQNCFALIPKAPKKDVIKMLVNDNKVLRYLAVLESPIPEDKDRRFVFSYFLATDMISIFEPPVRNSGIIGGKYLGRTKVVKPYSTVDNPVYYGPSDFFIGAVIEVFGHRFIILDTDEYVLKYMESNAAQYSPEALASIQNHVRKREAPAPEAESKQTEKDPGVQELEALIDTIQKQLKDHSCKDNIREAFQIYDKEASGYVDRDMFFKICESLNVPVDDSLVKELIRMCSHGEGKINYYNFVRAFSN
partner: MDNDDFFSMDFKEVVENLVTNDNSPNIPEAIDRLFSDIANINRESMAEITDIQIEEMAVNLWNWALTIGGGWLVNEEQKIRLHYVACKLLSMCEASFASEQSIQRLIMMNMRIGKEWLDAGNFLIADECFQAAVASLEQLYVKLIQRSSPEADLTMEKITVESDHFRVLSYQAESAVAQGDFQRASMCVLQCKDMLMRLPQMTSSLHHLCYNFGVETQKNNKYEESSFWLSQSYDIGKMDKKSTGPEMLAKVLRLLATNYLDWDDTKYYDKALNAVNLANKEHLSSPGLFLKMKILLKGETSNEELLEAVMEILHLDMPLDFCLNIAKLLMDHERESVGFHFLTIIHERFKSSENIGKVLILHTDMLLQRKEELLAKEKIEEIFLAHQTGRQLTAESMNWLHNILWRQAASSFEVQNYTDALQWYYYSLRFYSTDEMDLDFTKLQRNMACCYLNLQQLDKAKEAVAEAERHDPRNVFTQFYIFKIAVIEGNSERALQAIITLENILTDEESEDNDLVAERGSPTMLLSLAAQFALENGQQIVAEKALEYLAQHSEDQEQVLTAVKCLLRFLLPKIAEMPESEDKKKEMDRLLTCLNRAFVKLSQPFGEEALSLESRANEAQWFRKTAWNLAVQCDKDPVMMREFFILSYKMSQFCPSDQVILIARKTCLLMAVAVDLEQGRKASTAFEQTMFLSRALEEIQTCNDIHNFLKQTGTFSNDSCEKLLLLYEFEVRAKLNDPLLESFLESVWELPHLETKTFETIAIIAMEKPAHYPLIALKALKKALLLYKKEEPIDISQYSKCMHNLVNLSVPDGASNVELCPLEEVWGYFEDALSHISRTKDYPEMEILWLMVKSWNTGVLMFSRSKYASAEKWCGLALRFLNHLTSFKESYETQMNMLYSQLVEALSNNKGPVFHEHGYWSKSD
B3: EF-hand domain-containing protein 1 (Homo sapiens), Q5JVL4 (parent)
chain: B2 chain
partner: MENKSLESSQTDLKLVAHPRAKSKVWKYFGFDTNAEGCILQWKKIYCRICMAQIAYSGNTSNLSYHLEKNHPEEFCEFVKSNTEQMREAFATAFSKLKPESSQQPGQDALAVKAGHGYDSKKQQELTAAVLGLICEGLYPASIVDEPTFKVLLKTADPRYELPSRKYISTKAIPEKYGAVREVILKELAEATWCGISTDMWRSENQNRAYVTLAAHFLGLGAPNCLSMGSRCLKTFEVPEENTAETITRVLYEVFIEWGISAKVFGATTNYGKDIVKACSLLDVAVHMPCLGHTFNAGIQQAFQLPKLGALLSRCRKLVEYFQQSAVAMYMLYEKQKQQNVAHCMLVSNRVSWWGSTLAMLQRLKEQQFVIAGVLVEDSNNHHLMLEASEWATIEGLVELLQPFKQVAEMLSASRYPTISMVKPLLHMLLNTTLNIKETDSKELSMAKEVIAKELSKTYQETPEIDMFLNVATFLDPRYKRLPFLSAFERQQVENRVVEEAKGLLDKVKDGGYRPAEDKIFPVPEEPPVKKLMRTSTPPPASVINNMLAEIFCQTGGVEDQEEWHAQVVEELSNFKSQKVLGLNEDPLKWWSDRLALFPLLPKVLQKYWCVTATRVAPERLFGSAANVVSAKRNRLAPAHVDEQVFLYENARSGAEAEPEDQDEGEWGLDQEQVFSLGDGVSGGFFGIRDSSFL
B4: U4/U6 small nuclear ribonucleoprotein Prp31 (Homo sapiens), Q8WWY3 (parent)
chain: MSLADELLADLEEAAEEEEGGSYGEEEEEPAIEDVQEETQLDLSGDSVKTIAKLWDSKMFAEIMMKIEEYISKQAKASEVMGPVEAAPEYRVIVDANNLTVEIENELNIIHKFIRDKYSKRFPELESLVPNALDYIRTVKELGNSLDKCKNNENLQQILTNATIMVVSVTASTTQGQQLSEEELERLEEACDMALELNASKHRIYEYVESRMSFIAPNLSIIIGASTAAKIMGVAGGLTNLSKMPACNIMLLGAQRKTLSGFSSTSVLPHTGYIYHSDIVQSLPPDLRRKAARLVAAKCTLAARVDSFHESTEGKVGYELKDEIERKFDKWQEPPPVKQVKPLPAPLDGQRKKRGGRRYRKMKERLGLTEIRKQANRMSFGEIEEDAYQEDLGFSLGHLGKSGSGRVRQTQVNEATKARISKTLQRTLQKQSVVYGGKSTIRDRSSGTASSVAFTPLQGLEIVNPQAAEKKVAEANQKYFSSMAEFLKVKGEKSGLMST
partner: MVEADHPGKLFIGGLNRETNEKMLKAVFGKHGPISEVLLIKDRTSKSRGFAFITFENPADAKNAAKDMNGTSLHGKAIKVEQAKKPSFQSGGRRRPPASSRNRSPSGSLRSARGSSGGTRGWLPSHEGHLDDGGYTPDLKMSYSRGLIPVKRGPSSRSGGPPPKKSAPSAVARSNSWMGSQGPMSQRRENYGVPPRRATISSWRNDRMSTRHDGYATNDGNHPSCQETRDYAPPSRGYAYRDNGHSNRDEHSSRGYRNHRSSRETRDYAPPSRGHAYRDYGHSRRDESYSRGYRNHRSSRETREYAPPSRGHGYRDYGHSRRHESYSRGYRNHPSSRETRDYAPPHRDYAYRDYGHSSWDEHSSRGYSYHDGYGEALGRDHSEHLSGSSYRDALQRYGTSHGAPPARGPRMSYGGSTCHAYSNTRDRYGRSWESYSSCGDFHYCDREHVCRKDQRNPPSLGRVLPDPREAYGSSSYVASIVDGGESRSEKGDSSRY

Variants of: B1
Conditions: with cf206_human CFAP206, Q8IYR0

Row | effect of a mutation on the interaction | Variant
1 | disrupting interaction strength | MWRSCLRLRDGGRRLLNRPAGGPSASMSPGPTIPSPARAYAPPTERKRFYQNVSITQGEGGFEINLDHRKLKTPQAKLFTVPSEALAIAVATERDSQQDTIKYYTMHLTTLCNTSLDNPTQRNKDQLIRAAVKFLDTDTICYRVEEPETLVELQRNEWDPIIEWAEKRYGVEISSSTSIMGPSIPAKTREVLVSHLASYNTWALQGIEFVAAQLKSMVLTLGLIDLRLTVEQAVLLSRLEEEYQIQKWGNIEWAHDYELQELRARTAAGTLFIHLCSESTTVKHKLLKE [W94R]

Variants of: B2
Conditions: with TEX11, Q8IYF3-3

Row | effect of a mutation on the interaction | Variant
2 | disrupting interaction strength | A394S
3 | with no effect | M448T
4 | with no effect | T508R
5 | disrupting interaction strength | R221H
6 | with no effect | P77T
7 | with no effect | R159W

Variants of: B3
Conditions: with zbed1_human ZBED1, O96006

Row | effect of a mutation on the interaction | Variant
8 | with no effect | M448T
9 | disrupting interaction strength | P77T
10 | with no effect | R159W
11 | disrupting interaction strength | A394S
12 | disrupting interaction strength | T508R
13 | disrupting interaction strength | R221H

Variants of: B4
Conditions: with rby1f_human RBMY1F

Row | effect of a mutation on the interaction | Variant
14 | with no effect | MSLADELLADLEEAAEEEEGGSYGEEEEEPAIEDVQEETQLDLSGDSVKTIAKLWDSKMFAEIMMKIEEYISKQAKASEVMGPVEAAPEYRVIVDANNLTVEIENEVNIIHKFIRDKYSKRFPELESLVPNALDYIRTVKELGNSLDKCKNNENLQQILTNATIMVVSVTASTTQGQQLSEEELERLEEACDMALELNASKHRIYEYVESRMSFIAPNLSIIIGASTAAKIMGVAGGLTNLSKMPACNIMLLGAQRKTLSGFSSTSVLPHTGYIYHSDIVQSLPPDLRRKAARLVAAKCTLAARVDSFHESTEGKVGYELKDEIERKFDKWQEPPPVKQVKPLPAPLDGQRKKRGGRRYRKMKERLGLTEIRKQANRMSFGEIEEDAYQEDLGFSLGHLGKSGSGRVRQTQVNEATKARISKTLQRTLQKQSVVYGGKSTIRDRSSGTASSVAFTPLQGLEIVNPQAAEKKVAEANQKYFSSMAEFLKVKGEKSGLMST [L107V]
